{
  "source": "paper PMC9972587",
  "about": "“SIRT2-PFKP interaction dysregulates phagocytosis in macrophages with acute ethanol-exposure” (Frontiers in Immunology, 2022)",
  "binders": {"B1": {"name": "Recombinant human SIRT2 protein (enzyme, UniProt Q8IXJ6 1-389, looked up)", "chain": "MAEPDPSHPLETQAGKVQEAQDSDSDSEGGAAGGEADMDFLRNLFSQTLSLGSQKERLLDELTLEGVARYMQSERCRRVICLVGAGISTSAGIPDFRSPSTGLYDNLEKYHLPYPEAIFEISYFKKHPEPFFALAKELYPGQFKPTICHYFMRLLKDKGLLLRCYTQNIDTLERIAGLEQEDLVEAHGTFYTSHCVSASCRHEYPLSWMKEKIFSEVTPKCEDCQSLVKPDIVFFGESLPARFFSCMQSDFLKVDLLLVMGTSLQVQPFASLISKAPLSTPRLLINKEKAGQSDPFLGMIMGLGGGMDFDSKKAYRDVAWLGECDQGCLALAELLGWKKELEDLVRREHASIDAQSGAGVPNPSTSASPKKSPPPAKDEARTTEREKPQ", "notes": "Sirtuin 2 (SIRT2), human, recombinant; also called human SIRT2 ligand; source: bought: Sigma-Aldrich (CAT# SRP0116)"}},
  "molecular_target": "T1, Human recombinant PFKP protein (His and GST tag) (human, UniProt Q01813 1-784)",
  "T1 construct": "Phosphofructokinase, platelet isoform (PFKP), human, recombinant; also called human PFKP protein; source: bought: Sino Biological (CAT# 15003-H20B)",
  "T1 sequence (looked up)": "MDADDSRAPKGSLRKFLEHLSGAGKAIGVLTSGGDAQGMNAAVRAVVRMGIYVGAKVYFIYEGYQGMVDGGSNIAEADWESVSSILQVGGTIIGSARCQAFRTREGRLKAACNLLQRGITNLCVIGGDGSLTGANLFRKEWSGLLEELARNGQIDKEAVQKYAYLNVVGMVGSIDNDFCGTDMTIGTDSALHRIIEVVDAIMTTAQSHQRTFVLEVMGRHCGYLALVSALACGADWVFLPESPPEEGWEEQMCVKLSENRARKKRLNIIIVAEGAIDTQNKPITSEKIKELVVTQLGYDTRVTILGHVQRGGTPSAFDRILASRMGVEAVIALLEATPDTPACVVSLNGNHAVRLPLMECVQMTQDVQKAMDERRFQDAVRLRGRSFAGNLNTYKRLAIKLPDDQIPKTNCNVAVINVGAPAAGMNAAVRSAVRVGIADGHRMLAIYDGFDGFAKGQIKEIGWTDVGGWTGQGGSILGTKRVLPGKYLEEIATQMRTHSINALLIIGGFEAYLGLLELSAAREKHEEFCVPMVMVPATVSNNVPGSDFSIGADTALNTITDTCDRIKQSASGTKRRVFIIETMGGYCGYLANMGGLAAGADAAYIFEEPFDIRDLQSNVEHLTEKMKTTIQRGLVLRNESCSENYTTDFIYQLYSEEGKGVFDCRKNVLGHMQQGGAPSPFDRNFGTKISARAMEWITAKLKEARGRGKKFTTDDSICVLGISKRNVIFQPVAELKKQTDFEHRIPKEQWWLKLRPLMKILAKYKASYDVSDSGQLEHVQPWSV",
  "experiment": "SPR; Biacore S200; human SIRT2 immobilised on CM5 chip by amine coupling (10 mM sodium acetate pH 4.0 with 20 uM NAD+); PFKP injected at 15.62-1000 nM, contact time 120 s, 15 uL/minute; running buffer HBS-P+ pH 7.4; steady state equilibrium binding model",
  "settings": "both partners purified",
  "data": [
    {"binder": "B1", "values": [
      {"measurement": "Kd", "value": 100, "unit": "nM"}
    ]}
  ]
}
